Some results are limits rather than exact numbers.

The values that follow come from patent US20090053761A1, “Polypeptide Mutagenesis Method” (University College Cardiff Consultants Ltd., priority 2005, published 2009).

For this assay, the system named is E. coli. The experiment in a line: TEM-1 β-lactamase activity in vivo: ampicillin MIC of BLA DEL library colonies. It counts as cell-based, Escherichia coli DH5α. The conditions noted are these: minimum ampicillin concentration preventing growth of E. coli DH5α carrying the bla variant in pNOM; LB agar, 37° C., 16 hr. The method, then: The MuDel-inserted pNOM plasmids were isolated from each of the 22 colonies and equal amounts of each plasmid were pooled and subjected to restriction digestion with MlyI followed by agarose gel electrophoresis. The band corresponding to the linear pNOM minus MuDel was isolated and purified after agarose gel electrophoresis. Intramolecular ligation was performed using T4 DNA ligase and approximately 10 ng of linear pNOM (reaction conditions described above). The reaction was left at 25° C. for 10 min followed by 10 hr at 16° C. E. coli DH5α cells were transformed by electroporation with 1 μl of the ligation mixture. 500 μl of SOC medium was added to the cells immediately after electroporation and the cells were incubated at 37° C. for 1 hr. 50 μl and 500 μl of the recovering transformed cell cultures were plated on LB agar plates containing 15 μg/ml ampicillin. The plates were left overnight at 37° C. and 94 BLA^DEL library and two pNOM-containing colonies were selected and transferred to 96 deep-well culture plates containing 200 μl LB medium and 15 μg/ml ampicillin. The cells were grown for 16 hr at 37° C. with vigorous shaking. Sterile glycerol was added to 10% (v/v) for storage at −80° C.
The TEM-1 β-lactamase activity of each colony was measured in vivo by determining the minimum inhibitory concentration (MIC) of ampicillin that prevents E. coli growth. […]

B1: Wild-type (pNOM): wild-type TEM-1 β-lactamase encoded by the bla gene of pNOM, control (protein, UniProt P62593 24-286, looked up)
Beta-lactamase TEM: HPETLVKVKDAEDQLGARVGYIELDLNSGKILESFRPEERFPMMSTFKVLLCGAVLSRVDAGQEQLGRRIHYSQNDLVEYSPVTEKHLTDGMTVRELCSAAITMSDNTAANLLLTTIGGPKELTAFLHNMGDHVTRLDRWEPELNEAIPNDERDTTMPAAMATTLRKLLTGELLTLASRQQLIDWMEADKVAGPLLRSALPAGWFIADKSGAGERGSRGIIAALGPDGKPSRIVVIYTTGSQATMDERNRQIAEIGASLIKHW
Regarding B1, the “Amp MIC” value is more than 10000 µg/mL.
